Experimental data taken from patent publication US20080286803A1 (NEDERLANDSE ORGANISATIE VOOR TOEGEPAST …, published 2008).

Molecular target: wild-type pro-urokinase (natural activation site Pro-Arg-Phe-Lys-Ile-Ile-Gly-Gly) (human, UniProt P00749 21-431)
Assay: cell-based or functional assay

absorbance change at 405 nm (activation of pro-urokinase, read with pyro-Glu-Gly-Arg-pNA): ~2 fold
B1: purified recombinant MASP-2 (active form) (enzyme, UniProt O00187 16-686, looked up)
chain: TPLGPKWPEPVFGRLASPGFPGEYANDQERRWTLTAPPGYRLRLYFTHFDLELSHLCEYDFVKLSSGAKVLATLCGQESTDTERAPGKDTFYSLGSSLDITFRSDYSNEKPFTGFEAFYAAEDIDECQVAPGEAPTCDHHCHNHLGGFYCSCRAGYVLHRNKRTCSALCSGQVFTQRSGELSSPEYPRPYPKLSSCTYSISLEEGFSVILDFVESFDVETHPETLCPYDFLKIQTDREEHGPFCGKTLPHRIETKSNTVTITFVTDESGDHTGWKIHYTSTAQPCPYPMAPPNGHVSPVQAKYILKDSFSIFCETGYELLQGHLPLKSFTAVCQKDGSWDRPMPACSIVDCGPPDDLPSGRVEYITGPGVTTYKAVIQYSCEETFYTMKVNDGKYVCEADGFWTSSKGEKSLPVCEPVCGLSARTTGGRIYGGQKAKPGDFPWQVLILGGTTAAGALLYDNWVLTAAHAVYEQKHDASALDIRMGTLKRLSPHYTQAWSEAVFIHEGYTHDAGFDNDIALIKLNNKVVINSNITPICLPRKEAESFMRTDDIGTASGWGLTQRGFLARNLMYVDIPIVDHQKCTAAYEKPPYPRGSVTANMLCAGLESGGKDSCRGDSGGALVFLDSETERWFVGGIVSWGSMNCGEAGQYGVYTKVINYIPWIENIISDF
